This is an account of results in the nanobody polyreactivity screen of Harvey et al. (2022).

This data set can be described thus: yeast display, Sf9 membrane polyspecificity reagent, FACS + sequencing; frameworks hold sequencing errors. The gist of the method:
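A nanobody's polyreactivity label depends on the gate it was sorted from. Yeast display cells were stained with 10% biotinylated, detergent-solubilized Sf9 membrane reagent for 1 hour at 4 °C, enriched on streptavidin microbeads and sorted by FACS. The low and high (top ~1%) gates were set on anti-HA fluorescence for expression and streptavidin fluorescence for reagent binding.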
With “QVQLVESGGGLVQAGGRLRLSCAASGRIFGYYAMGWYRQAPGKERELVAAISYRGGTTYYADSVKGRFTISRDNAKNTVYLQMNSLKPEDTAVYYCAAAAKSGLDYWGQGTQVTVSS”, the “polyreactivity (PSR sort gate)” value was “high polyreactivity”.
As for “QVQLVESGGGLVQAGGRLRLSCAASGRIFIKNAMGWYRQAPGKESELVAAISDSGDSTYYAVSVKGRFTISRDNAKNTVYLQMNSLKPEDTAVYYCAADGADHRSEMYYWGQGTQVTVSS”, the “polyreactivity (PSR sort gate)” value is listed as “low polyreactivity”.
As to “QVQLVESGGGLVQAGGRLRLSCAASGRIFIYYAMGLYRQAPGKERELVAAISWGGGRTYYADSVKGRFTISRDNAKNTVYLQMNSLKPEDTAVYYCAAGVYTGQHEYDYWGQGTQVTVSS”, the “polyreactivity (PSR sort gate)” value is on record as “low polyreactivity”.
To “QVQLVESGGGLVQAGGRLRLSCAASGRIFNHYAMGWYRQAPGKERELVAAITFSGGSTYYADSVKGRFTISRDNAKNTVHLQMNSLKPEHTAVYYCANRFSYRYGLQYDYWGQGTQGTVSS” belongs “high polyreactivity”.
In the case of “QVQLVESGGGLVQAGGRLRLSCAASGRIFPWYAMGWSRPAPGKERELVAAISWSGGRTYYADSVKGRFTISRDNAKNTVYLQMNSLKPEDTAVDYCNADKWRYPLSGWWKRYDYWGQGTQVTVSS”, the “polyreactivity (PSR sort gate)” value is reported as “high polyreactivity”.
With “QVQLVESGGGLVQAGGRLRLSCAASGRIFQHNTMGWYRQAPGKEREFVAAIRRSGGSTYYADSVKGRFTISRDNAKNTVYLQMNSLRPEDTAVYYCAARDYPTGTRRWGGGDSWGQGTQVTVSS”, the “polyreactivity (PSR sort gate)” value was “low polyreactivity”.
Consider “QVQLVESGGGLVQAGGRLRLSCAASGRIFSINAMGWYRQAPGKERELVAAISNRGGSTYYADSVKGRFTISRDNAKNTVYLQLNSLKPEDTAVYYCAARVATSGNYAPYYYWGQGTQVTVSS”, for which the “polyreactivity (PSR sort gate)” value is “high polyreactivity”.
To “QVQLVESGGGLVQAGGRLRLSCAASGRIFWINDMGWYRQAPGKERELVAAITWSGASTYYADSVKGRFTISRDNAKNTVYLQMNSLKPEDTAVYYCAAVIADSLYYSYDYWGQGTQVTVSS” belongs “high polyreactivity”.
As to “QVQLVESGGGLVQAGGRLRLSCAASGRIFWTYAMGWYRQAPGKERELVAAISSGGSTNYADSVKGRFTISRDNAKNTVYLQMNSLKPEDTAVYYCAADRWYREYDYWGQGTQVTVSS”, the “polyreactivity (PSR sort gate)” value is reported as “low polyreactivity”.
To “QVQLVESGGGLVQAGGRLRLSCAASGRIYTAYYAMGWYIQAPGKERELVASISSSGTSTYADSVKGRFTISRDNAKNTVYLQMNSLKPEDTAVYYCATRKLRTRRYDYGYWGQGTQVTVSS” belongs “low polyreactivity”; to “QVQLVESGGGLVQAGGRLRLSCAASGRNFEPYAMGWYRQAPGKERELVAAISRSGGRTYYADSVKGRFTISRDNAKNTVYLQMNSLKPEDTAVYYCAAVGVYWYVYPHEYDYWGQGTQVTVSS”, “high polyreactivity”.
On to “QVQLVESGGGLVQAGGRLRLSCAASGRTFGYNAMGWYRQAPGKERELVAAITYSGGRTYYADSVKGRFTISRDNAKNTVYLQMNSLKPEDTAVYYCAALTRRVKKYDYWGQGTQVTVSS”, for which the “polyreactivity (PSR sort gate)” value is reported as “high polyreactivity”.
For the sequence “QVQLVESGGGLVQAGGRLRLSCAASGRTFSKYGMGGYRQAPGKEREFVAAISSSGDSTTYADSVKGRFTISRDNAKNAVYLQMNSLKPEDTAVSYCARQTSRYTGGERAYGYWGQGTQVTVSS”, the “polyreactivity (PSR sort gate)” value was “low polyreactivity”.
Take “QVQLVESGGGLVQAGGRLRLSCAASGRTFTQYTMGWYRQAPGKERELVAAISSGGSTYYADSVKGRFTISRDNAKNTVFLQMNSLNPEDTAVYYCAARSYYAKSRYYYWGQGTQVTVSS”: the “polyreactivity (PSR sort gate)” value is “high polyreactivity”.
To “QVQLVESGGGLVQAGGRLRLSCAASGRTFYTYAMGWYRQAPGKERELVAAITSGGSTYSADSVKGRFTISRDNAKNTVYLQMNSLKPEDTAVYYCAAEFYYWRGFDYWGQGTQVTVSS” belongs “low polyreactivity”; to “QVQLVESGGGLVQAGGRLRLSCAASGRTILSYAMGWYRQAPAKERELVAAITGSGGRKYYADSVKGRFTISRENAKNTVYLQMNSLKPEDTAVYYCATRWIKGRKMDYWGQGTQVTVSS”, “high polyreactivity”.
